From article PMC7404976

Biological target: MBP-Vip3Aa11(200-end), the C-terminal fragment of Vip3A toxin with an N-terminal 6xHis-MBP tag (Bacillus thuringiensis strain C9)
Test: crystal structure; MBP-Vip3Aa(200-end) 7 mg/mL, hanging drop at 18 °C, 0.1 M sodium acetate pH 4.2, 0.5 M potassium formate, 0.1 M ammonium sulfate, 11% PEG4000; space group P21, four molecules in one asymmetric unit, 3.2 Å

“MBP-Vip3Aa11(200-end), the C-terminal fragment of Vip3A toxin with an N-terminal 6xHis-MBP tag (domain or fragment)” was tested, and the stoichiometry N was 2.
